Experimental findings from patent publication US9663815B2, “Cytosolically-active peroxidases as reporters for microscopy” (Massachusetts Institute of Technology, priority 2011, dated 2017) are described below.

In one series the test system is HEK293T cells. Nature of the series: Amplex UltraRed labeling (resorufin fluorescence) of cells expressing peroxidase. In kind it is cell-based. How it is done: The expression and activity of wild-type (wt) APX was tested using immunostaining and Amplex UltraRed, a fluorogenic peroxidase substrate, in three cellular compartments: cytosol, mitochondrial matrix, and endoplasmic reticulum (ER). APX was differentially expressed in each compartment using at least the constructs described in Table 3. For comparison, HRP was tested in the same locations. Activity was monitored through visualization of resorufin, the fluorescent product of Amplex UltraRed oxidation by HRP or APX (scheme in FIG. 7). […] When live cells were imaged immediately after Amplex UltraRed labeling, resorufin fluorescence was seen throughout the entire cell. After fixation, however, the majority of the resorufin diffused out of the cells, and resorufin fluorescence remained only in the compartment in which APX was expressed. (Note that Amplex UltraRed, a proprietary derivative of Amplex Red, was used rather than Amplex Red in this example).
Further, Amplex UltraRed labeling and immunostaining of wtAPX, APX^W41F, mAPX, and APEX was performed on transfected HEK293T cells. Amplex UltraRed labeling was performed for 6 minutes. All APX variants were expressed with a C-terminal nuclear export signal (NES, see Table 3). […]

Series [1] is described as follows: Guaiacol activity assay (Michaelis-Menten kinetics). In kind it is biochemical. The settings on record: guaiacol as substrate, purified enzyme. How it is done: Data points represent the mean±standard deviation of 2-3 independent measurements. Initial rates are shown as a function of guaiacol concentration. H2O2 concentration was 90 μM, and enzyme concentration was 20 nM in all trials. Oxidation to tetraguaiacol was monitored by absorbance at 470 nm (ε470=22×10^3 M^−1 cm^−1)^2.
High activity toward guaiacol generally correlated well with robust polymerization of DAB in vitro. Guaiacol assays were performed on a Nanodrop 2000c UV-vis spectrophotometer (Thermo Scientific) using its cuvette reader. HRP (Sigma) was prepared as a 10 μM stock in PBS, flash frozen and stored at −80° C., and thawed immediately before use. Guaiacol peroxidase activity was measured according to the protocol of Lad et. al.^35 Oxidation to tetraguaiacol was monitored by absorbance at 470 nm (ε470=22×10^3 M^−1 cm^−1). Kcat and KM were calculated by nonlinear regression fitting to the Michaelis-Menten equation using OriginPro (OriginLab Corporation). All values are reported as the mean±standard deviation for 2-3 independent Michaelis-Menten fittings, with each fitting using at least 5 values of substrate concentration ranging between 0.25 and 30 mM.
In order to improve the performance of mAPX in mammalian cells, monomeric APX was engineered with improved activity toward DAB in the hope that faster kinetics could compensate for diminished heme binding. The substrate binding site of APX was compared to that of HRP, which has faster kinetics and broader aromatic substrate tolerance (Henriksen, et. al., Journal of Biological Chemistry 274, 35005-35011 (1999)). In order to make APX more HRP-like, seven mutants of APX were designed that incorporated mostly aromatic residues into the active site (FIG. 5a). A colorimetric assay was employed using guaiacol, a prototypical aromatic peroxidase substrate, to determine Michaelis-Menten parameters (Kumar, et. al., Journal of Cell Science 108, 3725-3734 (1995); Henriksen, et. al., Journal of Biological Chemistry 274, 35005-35011 (1999)) (FIG. 5b and FIG. 10). […]

A short description of series [2]: Gel filtration chromatography, oligomerization state. In kind it is physicochemical. As for the experimental part:
APX, fluorescent protein, or miniSOG preparations were diluted to the desired concentrations using chilled (4° C.) PBS and then allowed to incubate at room temperature for 30 min to overnight. Samples (100 μL) were run on a Waters HPLC system over a Superdex 75 10/300 column (GE Healthcare) that had been pre-equilibrated in PBS, pH 7.4. Samples were run isocratically in PBS at a flow rate of 0.5 mL/min. Elution of APX was monitored at 280 nm and 405 nm (heme absorbance). Empower software (Waters) was used for analysis of elution profiles. Apparent MWs were determined against low molecular weight standards (GE). […] The apparent MW of the monomer for wt APX was assumed to be equal to the apparent MW of mAPX at 0.25 μM.
To investigate whether this localization is an artifact of APEX dimerization at high concentrations, the experiment was repeated using a tandem dimer of APX^W41F (two APX^W41F proteins linked with a short amino acid chain, denoted tdAPX) as well as miniSOG in place of APEX. Additionally, gel filtration chromatography (GFC) was used to assess the relative abundance of oligomers that formed at increasing tdAPX concentrations in vitro (5 μM, 20 μM, and 47 μM). Three different linker lengths (18, 23, and 28 amino acids) were tested. His6-tagged proteins were expressed and purified from E. coli. All three variants gave a major peak with an apparent molecular weight (MW) of ˜56 kDa, as expected for tdAPX. The apparent MW of the major peak remained constant as a function of concentration for all three constructs. […] Therefore, the 28 amino acid linker variant was selected as the optimized tandem dimer to be used in EM experiments.

Entries after “also recorded” stand apart in the source; their conditions may differ.

B1: wt APX: pea cytosolic ascorbate peroxidase (Pisum sativum), wild type, about 28 kD, dimeric (protein, listed as Pisum sativum)
chain: MGKSYPTVSPDYQKAIEKAKRKLRGFIAEKKCAPLILRLAWHSAGTFDSKTKTGGPFGTIKHQAELAHGANNGLDIAVRLLEPIKEQFPIVSYADFYQLAGVVAVEITGGPEVPFHPGREDKPEPPPEGRLPDATKGSDHLRDVFGKAMGLSDQDIVALSGGHTIGAAHKERSGFEGPWTSNPLIFDNSYFTELLTGEKDGLLQLPSDKALLTDSVFRPLVEKYAADEDVFFADYAEAHLKLSELGFAEA
Regarding B1, in the series with HEK293T cells (expressed in cytosol, mitochondrial matrix and endoplasmic reticulum (ER)), the “peroxidase activity toward Amplex UltraRed (resorufin)” value is reported as “active in all contexts”. In series [1], the “activity in vitro (guaiacol)” value is reported as “equally active”. In addition, the oligomerization state entry in series [2] (PBS pH 7.4) was “predominantly dimeric at 0.25 μM; also recorded: runs as a dimer”.

B2: mAPX: double mutant K14D/E112K of pea APX (SEQ ID NO:1), monomeric (protein, listed as Pisum sativum)
chain: MGKSYPTVSPDYQDAIEKAKRKLRGFIAEKKCAPLILRLAWHSAGTFDSKTKTGGPFGTIKHQAELAHGANNGLDIAVRLLEPIKEQFPIVSYADFYQLAGVVAVEITGGPKVPFHPGREDKPEPPPEGRLPDATKGSDHLRDVFGKAMGLSDQDIVALSGGHTIGAAHKERSGFEGPWTSNPLIFDNSYFTELLTGEKDGLLQLPSDKALLTDSVFRPLVEKYAADEDVFFADYAEAHLKLSELGFAEA
As to B2, in the series on HEK293T cells (cytosol (NES), HEK293T, labeling 6 minutes), the “activity toward Amplex UltraRed” value is on record as “less active than wt APX”. For the same molecule, the “activity in vitro (guaiacol)” value in series [1] is on record as “equally active”. In addition, the oligomerization state entry in series [2] (PBS pH 7.4) is “comparable to EYFP and much more monomeric than both wt APX and mEos2”; in series [2] (PBS pH 7.4, listed as APX K14D/E112K), “most monomericity”.
